Biological target: the molecule itself
Assay: SEC-MALS

B1: AtYoeB toxin (Atu2017) from Agrobacterium tumefaciens, GST-His tag removed (natural protein)
chain: MKLVWTLSSWDDYEFWQRTDARMVEKINDLIRNAKRTPFAGLGKPEPLKGDMAGYWSRRITAEHRFVYRVSGSGSEQRLEVIQCRFHYQ
notes: source: E. coli BL21 (DE3), purified (NiNTA, HRV3c PreScission cleavage, Superdex 75); not shown: GST, C-terminal, cleaved
stoichiometry N: 2

— PMC7256200, “Identifying a Molecular Mechanism That Imparts Species-Specific Toxicity to YoeB Toxins” (Frontiers in Microbiology, 2020)
